The results in this text go back to US20220370630A1, “TRANSMUCOSAL DELIVERY SYSTEM FOR PHARMACEUTICAL ACTIVE INGREDIENT TO SUBMUCOSAL TISSUE OF BLADDER” (SEIKAGAKU CORPORATION, priority 2019, published 2022).

Data set [1] is described as follows: Release test: release ratio of API from the derivative in phosphate buffer solution pH 7.4 at 36° C., HPLC. It counts as physicochemical. The following applies: phosphate buffer pH 7.4, 36° C.; for Release ratio of API: 5 mg/10 mL; for Release rate: slope of release ratio against time. On the procedure:
In Examples pertaining to a release test, a release ratio of a pharmaceutical active ingredient (API) from a chondroitin sulfate derivative and a hyaluronic acid derivative, each of which was not fluorescently labeled was evaluated as follows. […] The release ratio was calculated based on the ratio of peak areas of HPLC corresponding to the amount of API in the derivative and the amount of released API using a size-exclusion chromatography column (TSKgel α, manufactured by Tosoh Corporation). Release ratio (%)=peak area of released API/(peak area of API in each derivative+peak area of released API)×100 Also with respect to the hyaluronic acid derivatives of Comparative Examples 2 to 3, evaluation was performed in the same manner as for Examples.

Data set [2] is described as follows: Evaluation using rat 2: concentration of TA in the bladder after administration to the lumen of the bladder, LC/MS/MS. Format: in vivo. The following applies: bladder homogenate on day 7 after administration; TA dose 0.8 mg/animal into the bladder; hydrochloric acid-pretreated rat; read-out: Concentration of API (TA).
Protocol: In both Example and Comparative Example, the dose of TA was set to 0.8 mg/animal.
The pretreatment was performed in the same manner as in the evaluation 1.
One day after the pretreatment, 0.2 mL of each test substance was transurethrally administered into the bladder using a catheter (PE50) under isoflurane inhalation anesthesia and allowed to stay there for 30 minutes.
Seven days after administering the test substance, the animal was laparotomized under isoflurane inhalation anesthesia and exsanguinated and euthanized by cutting the abdominal aorta, and then, the bladder was collected. The bladder was homogenized in a mixed solution of methanol/buffer solution (10 mmol/L ammonium formate buffer solution (pH 6.0):methanol=3:2 (v/v)), and a measurement sample was prepared so that the tissue concentration was 0.05 g/mL.
Subsequently, the amount of TA in the measurement sample was quantitatively determined by an LC/MS/MS analysis under the following conditions using triamcinolone-6-d1 acetonide-d6 as an internal standard substance.

On to “2-Aminoethyl-Probenecid-Introduced CS [CS-PRO-conjugate]”, for which the “Release ratio of API” value was determined as 0.31% in data set [1] (elapsed time 0 days); 0.83% in data set [1] (elapsed time 1 day); 1.43% in data set [1] (elapsed time 2 days); 2.13% in data set [1] (elapsed time 3 days); 2.91% in data set [1] (elapsed time 4 days); 3.63% in data set [1] (elapsed time 5 days). The figures for the “Release ratio of API” value in data set [1] (elapsed time 6 days) and in data set [1] (elapsed time 7 days) were 4.56% and 5.29%, respectively. The Release rate in data set [1] is listed as 0.72%/day.

For the compound `CC1(C)O[C@@H]2C[C@H]3[C@@H]4CCC5=CC(=O)C=C[C@]5(C)[C@@]4(F)[C@@H](O)C[C@]3(C)[C@]2(C(=O)CO)O1` [TA, triamcinolone acetonide], in data set [2], the concentration at 7 days came out at 4.09 ng/g.

As to “2-Aminoethyl-Diclofenac-Introduced CS [CS-DIC-conjugate]”, the “Release ratio of API” value in data set [1] (elapsed time 0 days) is reported as 0.00%; in data set [1] (elapsed time 1 day), 0.95%; in data set [1] (elapsed time 2 days) it was 2.06%; in data set [1] (elapsed time 3 days), 3.13%; in data set [1] (elapsed time 4 days), 4.11%; in data set [1] (elapsed time 5 days), 5.40%. Besides, the “Release ratio of API” value stood at 6.55% in data set [1] (elapsed time 6 days) and 7.62% in data set [1] (elapsed time 7 days). Further, in data set [1], the Release rate was determined as 1.10%/day.

In the case of “3-Aminopropyl Cinnamate-Introduced HA [HA-CIN-conjugate, reference compound]”, the “Release ratio of API” value in data set [1] (elapsed time 0 days), in data set [1] (elapsed time 1 day), in data set [1] (elapsed time 2 days), in data set [1] (elapsed time 3 days), in data set [1] (elapsed time 4 days) and in data set [1] (elapsed time 5 days) was 0.00% each time. The “Release ratio of API” value in data set [1] (elapsed time 6 days) and in data set [1] (elapsed time 7 days) was 0.00% each time. Besides, in data set [1] (1 week), the “Release of API (result in words)” value was “release of cinnamic acid was not observed”. In addition, the Release rate in data set [1] stood at 0.00%/day.

Consider “2-Aminoethyl-Dehydrocholate-Introduced CS [CS-DEH-conjugate]”, for which the “Release ratio of API” value in data set [1] (elapsed time 0 days) is 0.45%; in data set [1] (elapsed time 1 day), 0.53%; in data set [1] (elapsed time 2 days) it was 0.52%; in data set [1] (elapsed time 3 days), 0.66%; in data set [1] (elapsed time 4 days), 0.65%; in data set [1] (elapsed time 5 days) it was 0.78%. For the same compound, the “Release ratio of API” value in data set [1] (elapsed time 6 days) stood at 1.29%; in data set [1] (elapsed time 7 days), 1.42%. The Release rate in data set [1] amounted to 0.14%/day.

As for “β-alanyl-hydroxyzine-introduced CS [CS-HYD-conjugate]”, the “Release ratio of API” value in data set [1] (elapsed time 0 days) was determined as 0.00%; in data set [1] (elapsed time 1 day) it was 0.65%; in data set [1] (elapsed time 2 days) it was 1.48%; in data set [1] (elapsed time 3 days), 2.38%; in data set [1] (elapsed time 4 days), 3.35%; in data set [1] (elapsed time 5 days) it was 4.30%. The “Release ratio of API” value in data set [1] (elapsed time 6 days) was determined as 5.24%; in data set [1] (elapsed time 7 days), 6.05%. Besides, the Release rate in data set [1] came to 0.89%/day.
